One substance from publication PMC3064667 can be followed below.

For this experiment, the target named is T1, human IL-10 receptor (human) (UniProt Q13651).
T1 sequence 1: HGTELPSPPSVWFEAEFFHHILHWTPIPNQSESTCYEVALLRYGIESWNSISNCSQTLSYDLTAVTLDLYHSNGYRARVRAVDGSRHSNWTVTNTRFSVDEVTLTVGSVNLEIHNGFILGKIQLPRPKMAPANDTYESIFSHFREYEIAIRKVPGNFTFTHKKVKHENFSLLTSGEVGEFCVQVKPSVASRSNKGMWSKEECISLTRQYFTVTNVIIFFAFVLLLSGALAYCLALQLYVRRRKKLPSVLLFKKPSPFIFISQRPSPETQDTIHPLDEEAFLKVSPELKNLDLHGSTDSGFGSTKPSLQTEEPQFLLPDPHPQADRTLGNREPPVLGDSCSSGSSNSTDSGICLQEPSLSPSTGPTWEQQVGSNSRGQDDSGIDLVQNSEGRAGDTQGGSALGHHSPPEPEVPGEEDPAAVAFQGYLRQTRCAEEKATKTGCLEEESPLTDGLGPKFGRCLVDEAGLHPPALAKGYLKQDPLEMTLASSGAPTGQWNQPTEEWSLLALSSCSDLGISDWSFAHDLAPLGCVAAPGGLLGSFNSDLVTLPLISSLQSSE
T1 sequence 2: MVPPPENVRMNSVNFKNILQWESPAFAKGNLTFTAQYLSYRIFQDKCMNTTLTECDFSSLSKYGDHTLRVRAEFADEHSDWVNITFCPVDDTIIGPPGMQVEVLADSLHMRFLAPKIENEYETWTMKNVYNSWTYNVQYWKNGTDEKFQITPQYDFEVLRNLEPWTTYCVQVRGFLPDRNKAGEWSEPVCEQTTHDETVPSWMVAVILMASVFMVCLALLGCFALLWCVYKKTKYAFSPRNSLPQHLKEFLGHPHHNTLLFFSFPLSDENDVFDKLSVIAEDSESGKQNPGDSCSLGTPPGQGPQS

Chain of recombinant bovine IL-10 (P43480 19-178): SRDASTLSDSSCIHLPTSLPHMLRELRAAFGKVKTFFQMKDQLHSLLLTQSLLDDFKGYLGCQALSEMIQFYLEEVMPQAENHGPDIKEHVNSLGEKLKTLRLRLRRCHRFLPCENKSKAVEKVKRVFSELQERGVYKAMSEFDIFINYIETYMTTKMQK

“recombinant bovine IL-10 (from UniProt P43480 19-178) (ligand)”: the CD83 expression by LPS stimulated DCs, average percentage compared to cells only stimulated with LPS; bovine IL-10 0.25-20 ng/ml (130.5 at 0.25 ng/ml falling to 38.2 at 20 ng/ml) (% of cells only stimulated with LPS) is 130; the CD86 expression by LPS stimulated DCs, average percentage compared to cells only stimulated with LPS; bovine IL-10 0.25-20 ng/ml (106.3 at 0.25 ng/ml falling to 51.0 at 20 ng/ml) (% of cells only stimulated with LPS) came to 106; the IL-1β production by LPS stimulated monocytes with 10 ng/ml bovine IL-10, average percentage compared to cells only stimulated with LPS (% of cells only stimulated with LPS) was 30.3; the IL-12 production by LPS stimulated DCs, average percentage compared to cells only stimulated with LPS; bovine IL-10 0.25-20 ng/ml (102.9 at 0.25 ng/ml falling to 1.5 at 20 ng/ml) (% of cells only stimulated with LPS) stood at 103. The TNF-α production by LPS stimulated DCs, average percentage compared to cells only stimulated with LPS; bovine IL-10 0.25-20 ng/ml (143.9 at 0.25 ng/ml falling to 0.9 at 20 ng/ml) (% of cells only stimulated with LPS) was found to be 144 and the TNF-α production by LPS stimulated monocytes with 10 ng/ml bovine IL-10, average percentage compared to cells only stimulated with LPS (% of cells only stimulated with LPS) worked out at 14.2.
